Measured values as given in publication PMC6883375, “Enolase From Aspergillus fumigatus Is a Moonlighting Protein That Binds the Human Plasma Complement Proteins Factor H, FHL-1, C4BP, and Plasminogen” (Frontiers in Immunology, 2019).

Key:
[1] = biological target: Aspergillus fumigatus enolase (AfEno1), recombinant His-tagged (Aspergillus fumigatus) (UniProt Q96X30); test: BLI; His-tagged AfEno1 on Ni-NTA biosensors; factor H, C4BP or plasminogen as analyte; DPBS with 0.001% gelatin, RT; association 250 s, dissociation 250 s; 1:1 model; heat inactivated regulators as non-binding control
[2] = biological target: T1, human factor H (human, UniProt P08603 19-1231); test: not stated; data not shown; method and format not told
T1 construct: complement factor H, human, 150-kDa plasma protein of 20 short conserved repeats (SCRs); also called NHS-derived factor H; serum-derived Factor H; source: bought: CompTech (purified human factor H); also in normal human serum (NHS)

[3] = biological target: T1, human factor H; test: BLI; His-tagged AfEno1 on Ni-NTA biosensors; factor H, C4BP or plasminogen as analyte; DPBS with 0.001% gelatin, RT; association 250 s, dissociation 250 s; 1:1 model; heat inactivated regulators as non-binding control; settings: both partners purified
[4] = biological target: T2, human C4b binding protein (C4BP) (human, UniProt P04003 49-597; P20851 18-252); test: as above; settings: both partners purified
T2 construct: also called NHS-derived C4BP; plasma-derived C4BP; source: bought: CompTech (purified human C4BP); also in normal human serum (NHS); copies: 7 + 1
T2 sequence 1: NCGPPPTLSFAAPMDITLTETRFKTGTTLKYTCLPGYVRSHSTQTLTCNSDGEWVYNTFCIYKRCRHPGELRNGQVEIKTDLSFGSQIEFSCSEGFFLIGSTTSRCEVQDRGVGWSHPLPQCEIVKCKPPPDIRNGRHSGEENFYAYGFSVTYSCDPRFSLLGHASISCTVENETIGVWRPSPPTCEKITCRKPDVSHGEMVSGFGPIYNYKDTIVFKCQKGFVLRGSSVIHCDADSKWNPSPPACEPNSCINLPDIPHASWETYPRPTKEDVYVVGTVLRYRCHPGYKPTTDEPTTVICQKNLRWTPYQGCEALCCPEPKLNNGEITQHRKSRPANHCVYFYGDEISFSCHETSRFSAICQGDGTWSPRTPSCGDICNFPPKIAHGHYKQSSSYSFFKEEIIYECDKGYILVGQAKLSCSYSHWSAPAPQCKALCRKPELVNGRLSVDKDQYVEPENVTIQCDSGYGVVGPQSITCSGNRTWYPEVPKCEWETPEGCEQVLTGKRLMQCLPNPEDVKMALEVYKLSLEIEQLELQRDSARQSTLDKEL
T2 sequence 2: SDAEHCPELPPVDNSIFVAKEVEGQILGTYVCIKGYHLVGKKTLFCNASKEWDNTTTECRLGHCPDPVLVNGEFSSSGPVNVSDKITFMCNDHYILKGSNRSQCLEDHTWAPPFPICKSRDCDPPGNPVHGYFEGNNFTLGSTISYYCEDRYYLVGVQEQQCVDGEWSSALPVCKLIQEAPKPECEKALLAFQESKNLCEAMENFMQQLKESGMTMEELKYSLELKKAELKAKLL

T1 sequence (P08603 19-1231): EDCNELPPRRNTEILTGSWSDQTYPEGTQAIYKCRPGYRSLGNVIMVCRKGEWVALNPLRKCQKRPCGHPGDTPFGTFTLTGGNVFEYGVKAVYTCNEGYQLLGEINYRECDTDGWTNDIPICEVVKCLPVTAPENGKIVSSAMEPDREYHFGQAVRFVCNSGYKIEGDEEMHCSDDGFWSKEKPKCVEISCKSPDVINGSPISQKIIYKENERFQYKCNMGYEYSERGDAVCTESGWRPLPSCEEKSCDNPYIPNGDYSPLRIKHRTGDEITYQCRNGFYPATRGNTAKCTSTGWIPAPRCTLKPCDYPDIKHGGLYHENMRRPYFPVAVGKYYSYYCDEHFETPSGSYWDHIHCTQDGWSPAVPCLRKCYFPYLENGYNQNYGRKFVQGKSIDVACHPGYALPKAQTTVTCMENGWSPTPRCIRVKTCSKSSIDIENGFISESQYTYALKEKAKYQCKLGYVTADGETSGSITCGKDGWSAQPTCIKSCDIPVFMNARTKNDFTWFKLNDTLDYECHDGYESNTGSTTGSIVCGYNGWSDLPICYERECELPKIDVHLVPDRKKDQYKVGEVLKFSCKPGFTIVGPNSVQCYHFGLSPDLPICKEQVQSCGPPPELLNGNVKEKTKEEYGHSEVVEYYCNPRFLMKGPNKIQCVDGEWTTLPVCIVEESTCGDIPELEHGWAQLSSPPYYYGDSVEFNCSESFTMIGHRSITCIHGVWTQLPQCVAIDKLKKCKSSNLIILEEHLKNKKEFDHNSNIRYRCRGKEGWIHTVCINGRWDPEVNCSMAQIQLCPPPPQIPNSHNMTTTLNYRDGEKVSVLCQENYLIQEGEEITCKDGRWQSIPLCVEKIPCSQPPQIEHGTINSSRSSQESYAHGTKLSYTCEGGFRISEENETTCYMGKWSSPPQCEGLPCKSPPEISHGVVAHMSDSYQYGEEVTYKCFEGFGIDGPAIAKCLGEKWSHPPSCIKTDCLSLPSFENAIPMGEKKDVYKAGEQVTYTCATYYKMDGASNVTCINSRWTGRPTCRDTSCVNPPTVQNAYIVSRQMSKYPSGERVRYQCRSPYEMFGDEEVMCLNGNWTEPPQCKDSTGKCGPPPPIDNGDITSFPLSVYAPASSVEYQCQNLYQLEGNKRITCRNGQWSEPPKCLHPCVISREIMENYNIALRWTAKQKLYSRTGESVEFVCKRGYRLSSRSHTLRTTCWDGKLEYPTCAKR

In the case of human plasminogen (natural protein), the Kd [1] is reported as 0.53 µM.

B1: Candida albicans Pra1 (pH-regulated antigen 1) (natural protein)
chain: APVTVTRFVDASPTGYDWRADWVKGFPIDSSCNATQYNQLSTGLQEAQLLAEHARDHTLRFGSKSPFFRKYFGNETASAEVVGHFDNVVGADKSSILFLCDDLDDKCKNDGWAGYWRGSNHSDQTIICDLSFVTRRYLTQLCSSGYTVSKSKTNIFWAGDLLHRFWHLKSIGQLVIEHYADTYEEVLELAQENSTYAVRNSNSLIYYALDVYAYDVTIPGEGCNGDGTSYKKSDFSSFEDSDSGSDSGASSTASSSHQHTDSNPSATTDANSHCHTHADGEVHC
notes: pH-regulated antigen 1 (Pra1) of Candida albicans; the construct is not described; also called C. albicans Pra1
In the case of B1, the Kd [2] is reported as 0.00187 µM.

B2: Aspergillus fumigatus enolase (AfEno1), recombinant His-tagged (natural protein)
chain: MPISKIHARSVYDSRGNPTVEVDVVTETGLHRAIVPSGASTGQHEAHELRDGDKTQWGGKGVLKAVKNVNETIGPALIKENIDVKDQSKVDEFLNKLDGTANKSNLGANAILGVSLAVAKAGAAEKGVPLYAHISDLAGTKKPYVLPVPFQNVLNGGSHAGGRLAFQEFMIVPDSAPSFSEALRQGAEVYQKLKALAKKKYGQSAGNVGDEGGVAPDIQTAEEALDLITEAIEQAGYTGKIKIAMDVASSEFYKADVKKYDLDFKNPESDPSKWLTYEQLADLYKSLAAKYPIVSIEDPFAEDDWEAWSYFYKTSDFQIVGDDLTVTNPGRIKKAIELKSCNALLLKVNQIGTLTESIQAAKDSYADNWGVMVSHRSGETEDVTIADIAVGLRSGQIKTGAPCRSERLAKLNQILRIEEELGENAVYAGSKFRTAVNL
notes: enolase (AfEno1, allergen Aspf22) of Aspergillus fumigatus; the gene was cloned with six His residues added at the N-terminus; Vector printed as 'pET 4.1 a'; also called Aspf22; recombinant AfEno1; source: E. coli BL21 (DE3), purified (Ni-NTA, HisTrap); not shown: His6, N-terminal, kept
B2 showed a Kd [3] of 0.528 µM and a Kd [4] of 0.131 µM.
